Results as given in patent publication US20090136484A1.

Key:
[1] = molecular target: T1, Biotin-… (epitope sequence from candidal Hsp90) (Candida); assay: ELISA, biotinylated peptide on streptavidin plate, anti-His-HRP detection; Site 1; sample in 0.5 M urea, 0.2 M L-arginine pH 9.5
[2] = molecular target: T1, Biotin-… (epitope sequence from …); assay: ELISA, biotinylated peptide on streptavidin plate, anti-His-HRP detection; Site 1; sample in 50 mM Tris, pH 9.0
[3] = molecular target: T1, Biotin-… (epitope sequence from …); assay: ELISA, biotinylated peptide on streptavidin plate, anti-His-HRP detection; Site 2; sample in 50 mM Tris, 1 M sucrose, ~0.2% Tween20, 3 mM DTT, pH 3.0
[4] = molecular target: T1, Biotin-… (epitope sequence from …); assay: ELISA, biotinylated peptide on streptavidin plate, anti-His-HRP detection; Site 1; sample in 50 mM Tris, 3 mM DTT, pH 9.0
[5] = molecular target: T1, Biotin-… (epitope sequence from …); assay: ELISA, biotinylated peptide on streptavidin plate, anti-His-HRP detection; Site 2; sample in 0.5 M urea, 0.2 M L-arginine pH 9.5
[6] = molecular target: T1, Biotin-… (epitope sequence from …); assay: ELISA, biotinylated peptide on streptavidin plate, anti-His-HRP detection; Site 2; sample in 50 mM Tris, 3 mM DTT, pH 9.0
[7] = molecular target: T1, Biotin-… (epitope sequence from …); assay: ELISA, biotinylated peptide on streptavidin plate, anti-His-HRP detection; Site 2; sample in 50 mM Tris, pH 9.0
[8] = molecular target: T1, Biotin-… (epitope sequence from …); assay: ELISA, biotinylated peptide on streptavidin plate, anti-His-HRP detection; Site 1; sample in 50 mM Tris, 1 M sucrose, ~0.2% Tween20, 3 mM DTT, pH 3.0

ELISA activity [%] compared with the reference standard [1]: 90%
ELISA activity [%] compared with the reference standard [2]: 71%
ELISA activity [%] compared with the reference standard [3]: 130%
ELISA activity [%] compared with the reference standard [4]: 85%
ELISA activity [%] compared with the reference standard [5]: 78%
ELISA activity [%] compared with the reference standard [6]: 131%
ELISA activity [%] compared with the reference standard [7]: 95%
ELISA activity [%] compared with the reference standard [8]: 135%
B1: MYC123 ("wild type" Mycograb) scFv peptide (scFv)
scFv: MAEVQLVESGAEVKKPGESLRISCKGSGCIISSYWISWVRQMPGKGLEWMGKIDPGDSYINYSPSFQGHVTISADKSINTAYLQWNSLKASDTAMYYCARGGRDFGDSFDYWGQGTLVTVSSGGGGSGGGGSGGGGSDVVMTQSPSFLSAFVGDRITITCRASSGISRYLAWYQQAPGKAPKLLIYAASTLQTGVPSRFSGSGSGTEFTLTINSLQPEDFATYYCQHLNSYPLTFGGGTKVDIKRAAALEHHHHHH
